Measurements published in article PMC10916747, “Safety, biodistribution and radiation dosimetry of the Arg-Gly-Asp peptide ^99mTc-maraciclatide in healthy volunteers” (Nuclear Medicine Communications, 2024).
Numbered stars: 1 amine (or outer) side, 2 acyl side, 3 side chain; on linkers, the order of the positions; unused ones are H or OH. Bridge positions count the residues as written; N and C are the ends. Side chains are listed from the residue outwards. Peptide text beside a SMILES is read from it. * marks the point of attachment. X1 = C/C(=N\O)C(C)(C)NCCC(CCNC(C)(C)/C(C)=N/O)CCN*; Glutaryl = O=C(CCCC(=O)[*:2])[*:1]; X2 = NC(=O)COCC(=O)NCCOCCOCCOCCN*

Tests used:
[1] = tested on: integrin receptor αvβ3; conditions: background statement, no reference printed; cited from earlier work
[2] = tested on: healthy volunteers; assay: Phase 1 safety assessment (adverse events, vital signs, ECG, laboratory parameters)
Method: In 2003, a phase 1, placebo-controlled, observer-blinded, randomised, single ascending-dose study was performed. The study aimed to assess the safety of three intravenous levels of maraciclatide and the biodistribution and radiation dosimetry of ^99mTc-maraciclatide in healthy volunteers, assessing the potential of ^99mTc-maraciclatide as a radiopharmaceutical for diagnostic imaging.
Safety data on vital signs (heart rate, blood pressure, temperature, and oxygen saturation), electrocardiograms (ECG), laboratory parameters and physical examinations (general appearance, lung, abdominal, cardiovascular, and neurological exam by a qualified clinician) were measured prior to administration, and at multiple time points up to 7 days following administration. Based on clinical assessment, new abnormal or worsening clinical findings were defined as a change from the participant’s normal baseline to abnormal. All abnormal changes were recorded as adverse events (AEs).
Safety assessments were performed by an observer blinded to the administration of the placebo and ^99mTc-maraciclatide. A thorough review of safety data was performed before the decision was made to escalate to the higher dose in participants.

[3] = clinical; parameters: species or system human; conditions: human, in vivo, iv
Method: (§1) To calculate ^99mTc-maraciclatide ex-vivo activity, blood, plasma, urine, and faeces were collected at various time points after administration. Blood and plasma samples were collected at 10 min, 30 min, 1 h, 2 h, 4 h, 8 h, 24 h, 48 h, 72 h, and 7 days post-administration. Concentrations of maraciclatide in plasma were assayed using the LC-MS method (LOQ was 0.5 ng/ml). Urine was also collected at the same time points (if possible) up to 24 h post-administration. Faecal samples were collected as voided for up to 24 h post-administration. Assayed samples for ^99mTc-maraciclatide content were then measured using a gamma counter.
(§2) Concentrations of maraciclatide in plasma were assayed using the LC-MS method (LOQ was 0.5 ng/ml). The mean apparent terminal elimination half-life was approximately 1 h. Overall, systemic clearance was approximately 6.7 ml/min/kg, whilst the mean apparent volume of distribution was approximately 520 ml/kg. The majority of ^99mTc activity was excreted through the urinary pathway and GI tract, 55% and 16%, respectively.

[4] = tested on: healthy volunteers; assay: clinical; parameters: species or system human; conditions: in vivo, iv
Method: as §1, §2

[5] = tested on: healthy volunteers; parameters: method as in PMID 17353156; conditions: human urine, highest dose group (150 micrograms maraciclatide), reversed-phase LC ion-trap MS; cited from earlier work

## C/C(=N\O)C(C)(C)NCCC(CCNC(=O)CCCC(=O)NCCCC[C@@H]1NC(=O)CSC[C@@H](C(=O)NCCOCCOCCOCCNC(=O)COCC(N)=O)NC(=O)[C@H](Cc2ccccc2)NC(=O)[C@@H]2CSSC[C@H](NC1=O)C(=O)N[C@@H](CCCNC(=N)N)C(=O)NCC(=O)N[C@@H](CC(=O)O)C(=O)N2)CCNC(C)(C)/C(C)=N/O (stereo partly shown) [Maraciclatide] ({CH2CO}-K([Glutaryl-X1])CRGDCFC-X2; disulfide 2-6; thioether N-8; N-terminus and C-terminus assumed)
[1]
  affinity to αvβ3: nanomolar affinity
[2]; 15 μg maraciclatide (n = 8)
  Abdominal pain: Cause of AE: IMP
  Blood phosphate decrease: No. with AEs: 0
  Cardiac disorder: No. of AEs: 0
  Cardiac disorder: No. with AEs: 0
  Contact dermatitis: Cause of AE: Procedural complication
  Contact dermatitis: No. of AEs: 1
  Contact dermatitis: No. with AEs: 1
  Crystal urine present: No. of AEs: 0
  Crystal urine present: No. with AEs: 0
  Diarrhoea: Cause of AE: IMP
  Diarrhoea: No. of AEs: 1
  Diarrhoea: No. with AEs: 1
  Dizziness: Cause of AE: IMP
  Dizziness: No. of AEs: 1
  Dizziness: No. with AEs: 1
  ECG PR shortened: No. of AEs: 0
  ECG PR shortened: No. with AEs: 0
  ECG QRS complex prolonged: No. of AEs: 0
  ECG QRS complex prolonged: No. with AEs: 0
  Herpes simplex virus: No. with AEs: 0
  Hyperkalaemia: No. of AEs: 0
  Hyperkalaemia: No. with AEs: 0
  Hypoaesthesia: Cause of AE: IMP
  Hypoaesthesia: No. of AEs: 1
  Hypoaesthesia: No. with AEs: 1
  Infection: No. of AEs: 1
  Infection: No. with AEs: 1
[2]; 75 μg maraciclatide (n = 8)
  Blood phosphate decrease: No. with AEs: 1
  Cardiac disorder: No. of AEs: 1
  Cardiac disorder: No. with AEs: 1
  Crystal urine present: No. of AEs: 0
  Crystal urine present: No. with AEs: 0
  Dizziness: No. of AEs: 0
  Dizziness: No. with AEs: 0
  ECG PR shortened: No. of AEs: 0
  ECG PR shortened: No. with AEs: 0
  ECG QRS complex prolonged: Cause of AE: Unrelated medical condition
  ECG QRS complex prolonged: No. of AEs: 1
  ECG QRS complex prolonged: No. with AEs: 1
  Herpes simplex virus: No. with AEs: 0
  Hyperkalaemia: No. of AEs: 0
  Hyperkalaemia: No. with AEs: 0
  Hypoaesthesia: No. of AEs: 0
  Hypoaesthesia: No. with AEs: 0
  Hyporeflexia: Cause of AE: Other
  Hyporeflexia: No. of AEs: 1
  Hyporeflexia: No. with AEs: 1
  Infection: No. of AEs: 0
  Infection: No. with AEs: 0
[2]; 150 μg maraciclatide (n = 8)
  Blood phosphate decrease: No. with AEs: 0
  Cardiac disorder: No. of AEs: 0
  Cardiac disorder: No. with AEs: 0
  Crystal urine present: Cause of AEs: IMP
  Crystal urine present: No. of AEs: 1
  Crystal urine present: No. with AEs: 1
  Diarrhoea: No. of AEs: 0
  Diarrhoea: No. with AEs: 0
  Dizziness: No. of AEs: 0
  Dizziness: No. with AEs: 0
  ECG PR shortened: No. of AEs: 0
  ECG PR shortened: No. with AEs: 0
  ECG QRS complex prolonged: No. of AEs: 0
  ECG QRS complex prolonged: No. with AEs: 0
  Herpes simplex virus: No. with AEs: 1
  Hyperkalaemia: Cause of AEs: Procedural complication
  Hyperkalaemia: No. of AEs: 1
  Hyperkalaemia: No. with AEs: 1
  Hypoaesthesia: No. of AEs: 0
  Hypoaesthesia: No. with AEs: 0
  Hyporeflexia: No. of AEs: 0
  Hyporeflexia: No. with AEs: 0
  Infection: No. of AEs: 1
  Infection: No. with AEs: 1
[2]; in vivo
  AEs deemed related to maraciclatide (number): 7
  AEs deemed related to maraciclatide (percent): 23%
[3]
  Vd: ~0.52 L/kg
  clearance: ~6.7 mL/min/kg
  half-life: ~1 h
[4]
  plasma concentration time course: bi-exponential decline
[5]
  metabolites in urine: no metabolites were detected
  species observed in urine samples (in-vivo stability): Only intact maraciclatide was observed
